Experimental data as given in article PMC9245003.

Key:
Experiment in all cases: SEC-MALS
[1] = molecular target: gH/gL 60-mer nanoparticle (gH-C153T-I3 / gL) (Epstein-Barr virus) (UniProt P03231)
[2] = molecular target: gH/gL 24-mer nanoparticle (gH-ferritin / gL) (Epstein-Barr virus | Helicobacter pylori) (UniProt P03231)
[3] = molecular target: gH/gL 7-mer nanoparticle (gH-C153T-IMX313 / gL) (Epstein-Barr virus | Gallus gallus) (UniProt P03231)

With “gH/gL 60-mer nanoparticle (gH-C153T-I3 / gL) (from UniProt P03231;P03212) (complex)” the stoichiometry N [1] was 60.

“gH/gL 24-mer nanoparticle (gH-ferritin / gL) (from UniProt P03231;P03212) (complex)” showed a stoichiometry N [2] of 24.

Substance “gH/gL 7-mer nanoparticle (gH-C153T-IMX313 / gL) (from UniProt P03231;P03212) (complex)” has a stoichiometry N [3] of 7.
